# Tested on: corneal epithelium
# Test: Healing activity of EGF vehicled in hyaluronic acid, epithelial lesion of rabbit cornea
# Format: in vivo, rabbit (male albino New Zealand)
# Settings: for healing of lesions in the corneal epithelium: single eye
# Method: The experiments were carried out on male albino New Zealand rabbits (average weight 1.8 kg). The animals, after a period of adaptation of about 5 days, underwent epithelial lesion of the cornea in suitable conditions of local anesthetic with Novesina (4%). The lesion consisted of a monocular scarification of a circular area in the optic zone effected by a concave glass cylinder (.phi. 3mm) with a sharp edge.
# The animals were subdivided into groups, each group consisting of 5 animals, and subjected to pharmacological treatment by conjunctival instillation as follows:
# Treatment was effected on the right eye (RE) by conjunctival instillation of 2 drops every 8 hours for 3 total administrations.
# Healing of the corneal epithelium was evaluated by observation of the eye and photographic documentation with a slit lamp at various intervals after scarification: 0, 8 hours, 16 hours, 24 hours, 32 hours, 40 hours, and 48 hours.
molecule,measurement,setting,value
"Epidermal growth factor (protein, UniProt P01133 23-1207, looked up, Pro-epidermal growth factor, EGF (Epidermal growth factor), dissolved in saline (0.5 mg/5 ml)) Pro-epidermal growth factor: PQHWSCPEGTLAGNGNSTCVGPAPFLIFSHGNSIFRIDTEGTNYEQLVVDAGVSVIMDFHYNEKRIYWVDLERQLLQRVFLNGSRQERVCNIEKNVSGMAINWINEEVIWSNQQEGIITVTDMKGNNSHILLSALKYPANVAVDPVERFIFWSSEVAGSLYRADLDGVGVKALLETSEKITAVSLDVLDKRLFWIQYNREGSNSLICSCDYDGGSVHISKHPTQHNLFAMSLFGDRIFYSTWKMKTIWIANKHTGKDMVRINLHSSFVPLGELKVVHPLAQPKAEDDTWEPEQKLCKLRKGNCSSTVCGQDLQSHLCMCAEGYALSRDRKYCEDVNECAFWNHGCTLGCKNTPGSYYCTCPVGFVLLPDGKRCHQLVSCPRNVSECSHDCVLTSEGPLCFCPEGSVLERDGKTCSGCSSPDNGGCSQLCVPLSPVSWECDCFPGYDLQLDEKSCAASGPQPFLLFANSQDIRHMHFDGTDYGTLLSQQMGMVYALDHDPVENKIYFAHTALKWIERANMDGSQRERLIEEGVDVPEGLAVDWIGRRFYWTDRGKSLIGRSDLNGKRSKIITKENISQPRGIAVHPMAKRLFWTDTGINPRIESSSLQGLGRLVIASSDLIWPSGITIDFLTDKLYWCDAKQSVIEMANLDGSKRRRLTQNDVGHPFAVAVFEDYVWFSDWAMPSVMRVNKRTGKDRVRLQGSMLKPSSLVVVHPLAKPGADPCLYQNGGCEHICKKRLGTAWCSCREGFMKASDGKTCLALDGHQLLAGGEVDLKNQVTPLDILSKTRVSEDNITESQHMLVAEIMVSDQDDCAPVGCSMYARCISEGEDATCQCLKGFAGDGKLCSDIDECEMGVPVCPPASSKCINTEGGYVCRCSEGYQGDGIHCLDIDECQLGEHSCGENASCTNTEGGYTCMCAGRLSEPGLICPDSTPPPHLREDDHHYSVRNSDSECPLSHDGYCLHDGVCMYIEALDKYACNCVVGYIGERCQYRDLKWWELRHAGHGQQQKVIVVAVCVVVLVMLLLLSLWGAHYYRTQKLLSKNPKNPYEESSRDVRSRRPADTEDGMSSCPQPWFVVIKEHQDLKNGGQPVAGEDGQAADGSMQPTSWRQEPQLCGMGTEQGCWIPVSSDKGSCPQVMERSFHMPSYGTQTLEGGVEKPHSLLSANPLWQQRALDPPHQMELTQ",healing of lesions in the corneal epithelium,0 hours after scarification,+
same,healing of lesions in the corneal epithelium,8 hours after scarification,+
same,healing of lesions in the corneal epithelium,16 hours after scarification,+
same,animals healed,24 hours after scarification,4/5
same,healing of lesions in the corneal epithelium,24 hours after scarification,- and +
same,healing of lesions in the corneal epithelium,48 hours after scarification,-

# From patent US5442053A, “Salts and mixtures of hyaluronic acid with pharmaceutically active substances, pharmaceutical compositions containing the same and methods for administration of such compositions” (Fidia, S.p.A., priority 1983, dated 1995)
